Assay [1] concerns the target T1, recombinant human IL-17A/F (heterodimer) (human, UniProt Q16552 24-155; Q96PD4 31-163).
T1 sequence 1: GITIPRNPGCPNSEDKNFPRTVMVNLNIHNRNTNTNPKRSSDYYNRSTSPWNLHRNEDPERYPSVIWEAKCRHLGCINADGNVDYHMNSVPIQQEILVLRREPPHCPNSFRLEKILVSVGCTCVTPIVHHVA
T1 sequence 2: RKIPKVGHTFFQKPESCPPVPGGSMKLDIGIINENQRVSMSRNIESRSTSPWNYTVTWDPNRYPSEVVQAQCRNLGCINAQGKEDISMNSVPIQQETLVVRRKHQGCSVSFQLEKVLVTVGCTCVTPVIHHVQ
The assay is described as follows: cell-based or functional assay.

For assay [2], the target named is T2, recombinant human IL-17A (human, UniProt Q16552 24-155).
T2 sequence: T1 sequence 1
The assay is described as follows: cell-based or functional assay.

Assay [3] concerns the target T1, recombinant human IL-17A/F (heterodimer). Description: competitive ELISA in solution (method of Friguet et al.). In general terms: In an ELISA, binding on a coated surface is turned into a signal by an enzyme label.
Description: (§1) For this determination a competitive ELISA with the various isoforms was performed.
(§2) Appropriate concentrations of the respective antigens and monoclonal antibodies were mixed in assay buffer and incubated overnight with continuous shaking at room temperature. The same monoclonal antibodies in the same concentration, but without antigen were used as positive reference (100% value). Pre-incubated antibodies were added to the plates. The plates were incubated with continuous shaking and washed 4× with 250 μL/well TBS-TRP.
The target of assay [4] is T2, recombinant human IL-17A. The description is as above.
Description: as §1, §2

Where a chain is given by its changes, count along the chain named. Several values for one entry are separate records, joined by “and”; a condition that tells them apart may be missing. Identical values can stand only once.

The term Kd denotes the free concentration of one partner at which half of the binding sites on the other are occupied at equilibrium, for simple one-to-one binding.

B1: OREG-210 (antibody, V domains shown)
VH: QVQLKESGPDLVAPSQSLSITCTVSGFSLTSYGIHWVRQPPGKGLEWLVVIWSDGTTTYNSALKSRLSISKDNSKSQVFLKMNSLQTDDTAMYYCASSYDYLYHYTMDYWGQGTSVTVSS
VL: DVVMTQTPLSLPVSLGDQASISCRSSQSLVHSNGNTYFHWYLQKPGQSPKLLIYKVSNRFSGVPDRFSGSGSGTDFTLKISRVEAEDLGVYFCSQSTHVPLTFGAGTNLELK
notes: also called mAb OREG-210; Ab OREG-210
Regarding B1, the “IC50, neutralization of IL-6 production in normal human dermal fibroblasts” value (“IC50, neutralization of IL-6 production” below) in assay [1] is 167 ng/ml and 1.1 nM; in assay [2], 110 ng/ml and 0.74 nM. Also, the Ka in assay [3] was 3.4e+08 M⁻¹; in assay [4], 6.4e+08 M⁻¹. Besides, the Kd in assay [3] is 2.94 nM; in assay [4] it was 1.56 nM.

B2: F(ab')2 fragment of OREG-210 (other)
VH: B1 VH
VL: B1 VL
On to B2, for which the “IC50, neutralization of IL-6 production” value in assay [1] was 1160 ng/ml and 11.6 nM; in assay [2] it was 1050 ng/ml and 10.5 nM.

B3: Fab fragment of OREG-210 (Fab, V domains shown)
VH: B1 VH
VL: B1 VL
As to B3, the “IC50, neutralization of IL-6 production” value was 605 ng/ml and 12.1 nM in assay [1]; 1120 ng/ml and 22.4 nM in assay [2].

B4: OREG-203 (antibody, V domains shown)
VH: QAQLQQSGAELVKPGASVKMSCKAFGYTFTTFPIEWMKQNHGKSLEWIGNFHPYNDYTKYNEKFKGKAKLTVEKSSRTVYLELSRLTSDDSAVYYCARGAYYGDYVSHTMDFWGQGTSVTVSS
VL: NIVLTQSPASLAVSLGQRATISCRASESVDSYGNSFMHWYQQKPGQPPKLLIYLASNLESGVPARFSGSGSRTDFTLTIDPVEADDAAIYYCQQNNEDPLTFGAGTKLELK
notes: also called mAb OREG-203; Ab OREG-203
Take B4: the “IC50, neutralization of IL-6 production” value in assay [1] is 30.2 ng/ml and 0.2 nM; in assay [2], 115 ng/ml and 0.76 nM. In addition, the Ka in assay [3] is 1e+09 M⁻¹; in assay [4] it was 1.4e+09 M⁻¹. For the same molecule, the Kd was 1 nM in assay [3] and 0.714 nM in assay [4].

B5: Fab fragment of OREG-203 (Fab, V domains shown)
VH: B4 VH
VL: B4 VL
On to B5, for which the “IC50, neutralization of IL-6 production” value in assay [1] is 15.3 ng/ml and 0.306 nM; in assay [2] it was 75.9 ng/ml and 1.52 nM.

B6: OREG-207 (antibody, V domains shown)
VH: B4 VH with R77S
VL: B4 VL
notes: also called mAb OREG-207; Ab OREG-207
As for B6, the “IC50, neutralization of IL-6 production” value in assay [1] was 40.1 ng/ml and 0.26 nM; in assay [2], 96.5 ng/ml and 0.64 nM. The Ka in assay [3] was found to be 2.67e+09 M⁻¹; in assay [4], 1.54e+09 M⁻¹. In addition, the results for the Kd in assay [3] and in assay [4] were 0.375 nM and 0.649 nM, respectively.

Values taken from patent US20150104457A1 (OREGA BIOTECH, published 2015).
